Experimental data from IntAct's records for PubMed 16980972.

Biological target: asf1a_human ASF1A (UniProt Q9Y294)
Sequence (Q9Y294 whole entry): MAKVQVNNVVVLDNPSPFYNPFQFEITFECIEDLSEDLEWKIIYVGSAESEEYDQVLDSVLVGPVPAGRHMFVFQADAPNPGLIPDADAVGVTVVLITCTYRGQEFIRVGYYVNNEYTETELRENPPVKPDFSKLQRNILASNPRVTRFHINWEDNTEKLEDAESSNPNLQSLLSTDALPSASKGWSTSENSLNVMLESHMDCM

effect of a mutation on the interaction: disrupting interaction
Substance: Chromatin assembly factor 1 subunit B (Homo sapiens) (from UniProt Q13112) R483A;R499A
